Source: patent US20060035359A1 (BURNHAM INSTITUTE, published 2006)

Assays:
His-CKS1 = His-CKS1 (UniProt P61024)
[1] = biological target: T1, 35S-labeled in vitro translated (IVT) SBP1 protein (human, UniProt Q8N5L8 1-163, 35S label); test: GST pull-down of 35S-labeled IVT SBP1, SDS-PAGE and fluorography
T1 construct: Translated in reticulocyte lysate from the full-length SBP1 cDNA; The two differ only at the C-terminal residues; also called full-length SBP1; human SBP1
T1 sequence: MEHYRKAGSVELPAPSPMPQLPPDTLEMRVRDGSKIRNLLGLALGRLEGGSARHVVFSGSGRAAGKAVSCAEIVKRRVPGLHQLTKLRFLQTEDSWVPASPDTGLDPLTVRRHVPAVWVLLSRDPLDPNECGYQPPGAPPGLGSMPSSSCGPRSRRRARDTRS
Experimental: cDNAs encoding wild type Survivin or Survivin T34E was cloned into the EcoRI and XhoI sites of pGEX-4T-1 (Amersham-Pharmacia, Sweden), expressed in XL-1-blue cells (Stratagene, Inc., La Jolla, Calif.), and affinity-purified using glutathione-Sepharose, using methods essentially as described in (Xie et al., 1998, Biochemistry, 37:6410-6418). A GST-CD40 fusion protein was included as a negative control. Purified GST-fusion proteins (0.5-1.0 μg immobilized on 10-20 μl of glutathione beads) and 2.5 μl of […] reticulocyte lysates (TNT-Lysates; Promega, Inc., Madison, Wis.) containing ³⁵S-labeled in vitro translated (IVT) SBP1 protein were incubated in […] of HKMEN (10 mM HEPES [pH 7.2], 142 mM KCl, 5 mM MgCl₂, 2 mM EGTA, 0.1% NP-40) at 4° C. for 30 minutes. The beads were washed 3× with 1 ml HKMEN solution to remove unbound ³⁵S-labeled IVT SBP1 protein, followed by boiling in 25 μl of Laemmli-SDS sample buffer to release and denature SBP1 bound to the matrix-bound GST-fusion protein. The eluted proteins were analyzed by SDS-PAGE (12%) and detected by fluorography.

[2] = biological target: fusion protein of the B42 trans-activation domain fused to XIAP (UniProt P98170 1-497); test: yeast two-hybrid, LEU2 growth and beta-galactosidase filter assay
fusion protein of the B42 trans-activation domain fused to XIAP, sequence (P98170 whole entry, the tested form may be a part): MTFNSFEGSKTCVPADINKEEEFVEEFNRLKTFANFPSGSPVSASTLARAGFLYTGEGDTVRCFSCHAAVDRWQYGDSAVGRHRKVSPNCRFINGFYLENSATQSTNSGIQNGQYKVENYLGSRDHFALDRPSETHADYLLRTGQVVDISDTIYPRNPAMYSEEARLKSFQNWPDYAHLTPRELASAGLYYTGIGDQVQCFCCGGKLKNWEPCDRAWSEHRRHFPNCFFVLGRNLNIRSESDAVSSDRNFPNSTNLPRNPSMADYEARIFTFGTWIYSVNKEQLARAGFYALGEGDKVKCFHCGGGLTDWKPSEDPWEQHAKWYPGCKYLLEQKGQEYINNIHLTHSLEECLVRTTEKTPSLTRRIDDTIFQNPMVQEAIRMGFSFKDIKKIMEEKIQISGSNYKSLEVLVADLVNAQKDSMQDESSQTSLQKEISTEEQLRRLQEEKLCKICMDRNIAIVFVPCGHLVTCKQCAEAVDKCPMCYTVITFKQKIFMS
Experimental: (§1) A plasmid (1 μg DNA) encoding a fusion protein of the LexA DNA-binding domain appended to the N-terminus of SBP1 was co-transformed into yeast strain EGY48 with […] of pJG4-5 plasmid encoding fusion proteins of the B42 trans-activation domain fused to Survivin, Survivin T34E, Bcl-2, pro-caspase-9, XIAP, Bax, or Apaf-1. Bcl-2, pro-caspase-9, XIAP, Bax, and Apaf-1 are other […]. […] Only the Survivin T34E scored positive for leucine and β-galactosidase activity, wild type Survivin, Bcl-2, caspase-9, XIAP, Bax and Apaf-1 scored negative under the conditions.

[3] = biological target: T2, fusion protein of the B42 trans-activation domain fused to Apaf-1 (UniProt O14727 1-1248); test: as above
T2 sequence (looked up): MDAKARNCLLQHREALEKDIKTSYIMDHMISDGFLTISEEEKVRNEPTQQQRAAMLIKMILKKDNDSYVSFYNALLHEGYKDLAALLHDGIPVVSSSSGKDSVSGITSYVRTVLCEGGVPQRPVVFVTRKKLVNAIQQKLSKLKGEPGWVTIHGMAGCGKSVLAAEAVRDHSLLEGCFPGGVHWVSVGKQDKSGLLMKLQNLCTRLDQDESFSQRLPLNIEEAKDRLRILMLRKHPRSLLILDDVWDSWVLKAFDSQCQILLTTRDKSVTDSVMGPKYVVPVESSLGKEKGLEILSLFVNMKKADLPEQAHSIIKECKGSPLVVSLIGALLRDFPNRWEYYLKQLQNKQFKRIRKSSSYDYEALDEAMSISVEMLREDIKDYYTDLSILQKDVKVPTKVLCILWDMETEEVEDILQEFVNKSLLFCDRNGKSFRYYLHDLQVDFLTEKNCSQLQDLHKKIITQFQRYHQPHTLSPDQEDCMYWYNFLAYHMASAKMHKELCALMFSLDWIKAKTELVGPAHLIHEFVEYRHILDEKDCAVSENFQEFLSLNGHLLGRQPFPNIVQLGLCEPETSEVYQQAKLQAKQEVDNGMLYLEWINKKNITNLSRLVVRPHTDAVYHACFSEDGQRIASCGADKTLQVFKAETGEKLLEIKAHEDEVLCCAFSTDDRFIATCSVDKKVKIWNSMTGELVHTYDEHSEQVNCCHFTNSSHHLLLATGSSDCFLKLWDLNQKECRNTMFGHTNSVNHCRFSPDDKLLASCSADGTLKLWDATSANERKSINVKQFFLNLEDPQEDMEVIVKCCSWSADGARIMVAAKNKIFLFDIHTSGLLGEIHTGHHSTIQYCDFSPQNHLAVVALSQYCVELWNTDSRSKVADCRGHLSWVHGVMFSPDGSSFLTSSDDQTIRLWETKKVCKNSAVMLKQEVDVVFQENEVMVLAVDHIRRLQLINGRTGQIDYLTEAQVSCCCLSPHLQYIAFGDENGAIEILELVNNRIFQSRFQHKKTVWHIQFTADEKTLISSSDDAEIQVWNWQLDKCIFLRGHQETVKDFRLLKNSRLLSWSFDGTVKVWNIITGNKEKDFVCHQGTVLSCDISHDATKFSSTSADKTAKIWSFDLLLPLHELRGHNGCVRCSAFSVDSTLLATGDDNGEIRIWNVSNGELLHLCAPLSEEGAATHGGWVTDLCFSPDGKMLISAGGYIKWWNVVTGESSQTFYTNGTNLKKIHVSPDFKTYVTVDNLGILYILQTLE
Experimental: as §1

[4] = biological target: T3, fusion protein of the B42 trans-activation domain fused to pro-caspase-9 (UniProt P55211 1-416); test: as above
T3 sequence (looked up): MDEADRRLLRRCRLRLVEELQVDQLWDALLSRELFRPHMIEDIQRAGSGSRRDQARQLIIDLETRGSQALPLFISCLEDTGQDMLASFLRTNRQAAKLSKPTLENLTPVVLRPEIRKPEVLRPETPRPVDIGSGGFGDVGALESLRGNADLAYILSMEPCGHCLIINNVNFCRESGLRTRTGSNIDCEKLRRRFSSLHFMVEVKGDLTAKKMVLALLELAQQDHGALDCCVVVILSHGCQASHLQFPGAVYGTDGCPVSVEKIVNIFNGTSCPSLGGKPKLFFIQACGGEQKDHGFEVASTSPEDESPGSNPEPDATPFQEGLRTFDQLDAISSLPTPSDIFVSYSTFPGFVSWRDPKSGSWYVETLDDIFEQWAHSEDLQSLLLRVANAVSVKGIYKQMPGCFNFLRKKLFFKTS
Experimental: as §1

His-CKS1, sequence (P61024 whole entry, looked up): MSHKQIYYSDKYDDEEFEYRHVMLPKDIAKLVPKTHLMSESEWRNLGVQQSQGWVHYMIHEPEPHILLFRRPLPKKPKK

immunoprecipitated cyclin B1/cdc2
histone H1 phosphorylation (His-CKS1): is phosphorylated in the added presence of His-Cks 1

B1: GST-CD40 cytosolic domain protein (other, UniProt P25942 216-277, looked up)
chain: KKVAKKPTNKAPHPKQEPQEINFPDDLPGSNTAAPVQETLHGCQPVTQEDGKESRISVQERQ
notes: domain: cytosolic domain; Negative control; also called GST-CD40 fusion protein; not shown: glutathione S-transferase (GST) fusion partner
binding result [1]: no binding

B2: fusion protein of the LexA DNA-binding domain appended to the N-terminus of SBP1 (other)
chain: MKALTARQQEVFDLIRDHISQTGMPPTRAEIAQRLGFRSPNAAEEHLKALARKGVIEIVSGASRGIRLLQEEEEGLPLVGRVAAGEPLLAQQHIEGHYQVDPSLFKPNADFLLRVSGMSMKDIGIMDGDLLAVHKTQDVRNGQVVVARIDDEVTVKRLKKQGNKVELLPENSEFKPIVVDLRQQSFTIEGLAVGVIRNGDWLMEHYRKAGSVELPAPSPMPQLPPDTLEMRVRDGSKIRNLLGLALGRLEGGSARHVVFSGSGRAAGKAVSCAEIVKRRVPGLHQLTKLRFLQTEDSWVPASPDTGLDPLTVRRHVPAVWVLLSRDPLDPNECGYQPPGAPPGLGSMPSSSCGPRSRRRARDTRS
notes: Yeast two-hybrid construct expressed in yeast strain EGY48
binding result [2]: no binding
binding result [3]: no binding
binding result [4]: no binding
